Assay results published in PMC4593227, “Biochemical effects of mutations in the gene encoding the alpha subunit of eukaryotic initiation factor (eIF) 2B associated with Vanishing White Matter disease” (BMC Medical Genetics, 2015).

Experiments:
[1] = biological target: T1, His6-myc-tagged Val183Phe eIF2Bα (human, UniProt Q14232 1-305, Val183Phe); test: cell-based or functional assay
T1 sequence: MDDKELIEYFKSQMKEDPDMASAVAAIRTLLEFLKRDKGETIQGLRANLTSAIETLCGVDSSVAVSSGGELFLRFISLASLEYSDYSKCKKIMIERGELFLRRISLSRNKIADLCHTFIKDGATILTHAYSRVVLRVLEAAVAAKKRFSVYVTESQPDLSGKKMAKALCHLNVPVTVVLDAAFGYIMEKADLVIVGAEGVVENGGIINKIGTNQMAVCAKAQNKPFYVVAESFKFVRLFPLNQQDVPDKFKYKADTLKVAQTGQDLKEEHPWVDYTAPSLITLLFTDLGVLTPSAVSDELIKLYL

[2] = biological target: T2, His6-myc-tagged Tyr275Cys eIF2Bα (human, UniProt Q14232 1-305, Tyr275Cys); test: pull-down; His6-myc-eIF2Bα (WT or mutant) co-expressed with myc-tagged eIF2B subunits in HEK293; ~200 μg lysate on Ni2+-NTA agarose, 1 h at 4 °C, lysis buffer (20 mM Hepes-KOH pH 7.6, 50 mM KCl, 0.5 % Triton X-100) with 20 mM imidazole; bound material blotted for myc tag, total and phospho-eIF2α; conditions: partners not purified
T2 construct: eIF2Bα encoded by EIF2B1 with the VWM patient mutation Tyr275Cys; residue numbers start with the first methionine of GenBank AAI03764; also called p.Tyr275Cys; source: HEK293, transfected (calcium phosphate), in lysate
T2 sequence: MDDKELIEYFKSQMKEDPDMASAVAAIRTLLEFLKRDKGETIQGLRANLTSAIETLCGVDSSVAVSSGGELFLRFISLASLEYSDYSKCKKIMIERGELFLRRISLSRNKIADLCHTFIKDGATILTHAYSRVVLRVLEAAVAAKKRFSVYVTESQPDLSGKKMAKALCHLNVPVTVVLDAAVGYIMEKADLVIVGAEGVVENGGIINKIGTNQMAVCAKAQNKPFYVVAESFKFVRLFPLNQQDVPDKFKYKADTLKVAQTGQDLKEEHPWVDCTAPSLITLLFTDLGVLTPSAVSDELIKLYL

[3] = biological target: T1, His6-myc-tagged Val183Phe eIF2Bα; test: as above; conditions: partners not purified

B1: myc-tagged eIF2Bβ (natural protein, UniProt P49770 1-351, looked up)
chain: MPGSAAKGSELSERIESFVETLKRGGGPRSSEEMARETLGLLRQIITDHRWSNAGELMELIRREGRRMTAAQPSETTVGNMVRRVLKIIREEYGRLHGRSDESDQQESLHKLLTSGGLNEDFSFHYAQLQSNIIEAINELLVELEGTMENIAAQALEHIHSNEVIMTIGFSRTVEAFLKEAARKRKFHVIVAECAPFCQGHEMAVNLSKAGIETTVMTDAAIFAVMSRVNKVIIGTKTILANGALRAVTGTHTLALAAKHHSTPLIVCAPMFKLSPQFPNEEDSFHKFVAPEEVLPFTEGDILEKVSVHCPVFDYVPPELITLFISNIGGNAPSYIYRLMSELYHPDDHVL
notes: eIF2Bβ, beta subunit of eukaryotic initiation factor 2B; one of 'the other subunits of the eIF2B complex'; source: HEK293, transfected (calcium phosphate), in lysate
How did the “decrease in eIF2B GEF activity of complexes containing Val183Phe eIF2Bα, relative to WT (100 %)” value [1] turn out when B1 was run?
Its value is about 30%.

What about the “reduction in binding relative to WT” value [2] of the same binder?
The value was about 50%.

What about the “reduction in binding relative to WT” value [3] of the same binder?
Its value is about 50%.

B2: myc-tagged eIF2Bγ (natural protein, UniProt Q9NR50 1-452, looked up)
chain: MEFQAVVMAVGGGSRMTDLTSSIPKPLLPVGNKPLIWYPLNLLERVGFEEVIVVTTRDVQKALCAEFKMKMKPDIVCIPDDADMGTADSLRYIYPKLKTDVLVLSCDLITDVALHEVVDLFRAYDASLAMLMRKGQDSIEPVPGQKGKKKAVEQRDFIGVDSTGKRLLFMANEADLDEELVIKGSILQKHPRIRFHTGLVDAHLYCLKKYIVDFLMENGSITSIRSELIPYLVRKQFSSASSQQGQEEKEEDLKKKELKSLDIYSFIKEANTLNLAPYDACWNACRGDRWEDLSRSQVRCYVHIMKEGLCSRVSTLGLYMEANRQVPKLLSALCPEEPPVHSSAQIVSKHLVGVDSLIGPETQIGEKSSIKRSVIGSSCLIKDRVTITNCLLMNSVTVEEGSNIQGSVICNNAVIEKGADIKDCLIGSGQRIEAKAKRVNEVIVGNDQLMEI
notes: eIF2Bγ, gamma subunit of eukaryotic initiation factor 2B; one of 'the other subunits of the eIF2B complex'; source: HEK293, transfected (calcium phosphate), in lysate
With B2 as the binder, how does the “decrease in eIF2B GEF activity of complexes containing Val183Phe eIF2Bα, relative to WT (100 %)” value [1] read?
Its value is about 30%.

What about the “reduction in binding relative to WT” value [2] of the same binder?
The value was about 50%.

And the “reduction in binding relative to WT” value [3]?
Its value is about 50%.
